B1: Ras suppressor-1 (Rsu-1), wild type (natural protein)
chain: MSKSLKKLVEESREKNQPEVDMSDRGISNMLDVNGLFTLSHITQLVLSHNKLTMVPPNIAELKNLEVLNFFNNQIEELPTQISSLQKLKHLNLGMNRLNTLPRGFGSLPALEVLDLTYNNLSENSLPGNFFYLTTLRALYLSDNDFEILPPDIGKLTKLQILSLRDNDLISLPKEIGELTQLKELHIQGNRLTVLPPELGNLDLTGQKQVFKAENNPWVTPIADQFQLGVSHVFEYIRSETYKYLYGRHMQANPEPPKKNNDKSKKISRKPLAAKNR
B2: PINCH-2 LIM5S (size exclusion) (domain or fragment)
chain: GDVCYNCSHVIEGDVVSALNKAWCVSCFSCSTCNSKLTLKNKFVEFDMKPVCKRCYEKFPLELKKRLKKLSELTSRK
B3: Integrin linked kinase (ILK), subunit of the IPP complex (natural protein)
chain: MDDIFTQCREGNAVAVRLWLDNTENDLNQGDDHGFSPLHWACREGRSAVVEMLIMRGARINVMNRGDDTPLHLAASHGHRDIVQKLLQYKADINAVNEHGNVPLHYACFWGQDQVAEDLVANGALVSICNKYGEMPVDKAKAPLRELLRERAEKMGQNLNRIPYKDTFWKGTTRTRPRNGTLNKHSGIDFKQLNFLTKLNENHSGELWKGRWQGNDIVVKVLKVRDWSTRKSRDFNEECPRLRIFSHPNVLPVLGACQSPPAPHPTLITHWMPYGSLYNVLHEGTNFVVDQSQAVKFALDMARGMAFLHTLEPLIPRHALNSRSVMIDEDMTARISMADVKFSFQCPGRMYAPAWVAPEALQKKPEDTNRRSADMWSFAVLLWELVTREVPFADLSNMEIGMKVALEGLRPTIPPGISPHVCKLMKICMNEDPAKRPKFDMIVPILEKMQDK

Legend:
Assay in all cases: SEC
[1] = target: PINCH-1 (residues 1-325), subunit of the IPP complex (human, UniProt P48059 1-325)
Chain of PINCH-1 (residues 1-325), subunit of the IPP complex (P48059 whole entry, the tested form may be a part, one chain of several): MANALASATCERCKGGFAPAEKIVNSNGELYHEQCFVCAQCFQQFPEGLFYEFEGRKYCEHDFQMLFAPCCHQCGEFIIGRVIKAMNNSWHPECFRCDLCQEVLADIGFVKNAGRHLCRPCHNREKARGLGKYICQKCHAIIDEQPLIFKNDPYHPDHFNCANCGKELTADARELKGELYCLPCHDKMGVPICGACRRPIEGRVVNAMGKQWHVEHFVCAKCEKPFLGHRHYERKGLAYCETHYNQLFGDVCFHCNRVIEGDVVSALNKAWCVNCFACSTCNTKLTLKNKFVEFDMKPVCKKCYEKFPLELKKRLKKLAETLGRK

[2] = target: B1
[3] = target: T1, Kindlin-2 (human, UniProt Q96AC1 1-680)
T1 sequence: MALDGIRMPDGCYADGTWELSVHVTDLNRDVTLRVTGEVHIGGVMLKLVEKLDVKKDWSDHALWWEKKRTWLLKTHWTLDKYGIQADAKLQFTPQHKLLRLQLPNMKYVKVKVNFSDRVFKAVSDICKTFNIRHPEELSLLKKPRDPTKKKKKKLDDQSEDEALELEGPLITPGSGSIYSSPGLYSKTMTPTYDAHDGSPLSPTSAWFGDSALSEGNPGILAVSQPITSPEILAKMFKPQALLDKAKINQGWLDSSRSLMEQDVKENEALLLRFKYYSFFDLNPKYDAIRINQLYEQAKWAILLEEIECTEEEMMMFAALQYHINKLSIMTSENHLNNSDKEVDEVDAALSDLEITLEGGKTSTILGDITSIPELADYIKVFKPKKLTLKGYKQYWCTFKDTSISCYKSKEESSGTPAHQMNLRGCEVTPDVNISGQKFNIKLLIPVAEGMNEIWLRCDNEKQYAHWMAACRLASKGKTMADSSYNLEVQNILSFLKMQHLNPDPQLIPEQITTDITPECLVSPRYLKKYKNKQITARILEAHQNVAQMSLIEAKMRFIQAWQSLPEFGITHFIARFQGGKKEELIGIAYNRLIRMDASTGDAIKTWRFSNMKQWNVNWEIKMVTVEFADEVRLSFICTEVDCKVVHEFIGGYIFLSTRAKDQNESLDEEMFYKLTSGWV

Binder: B1
- binding result [1]: binds

Binder: B2
- binding result [2]: binds

Binder: B3
- binding result [3]: binds

From publication doi:10.1101/2021.02.19.432017 (bioRxiv, 2021)
